Values of other authors in publication PMC3791513.

Target: GPR77 (Homo sapiens) (UniProt Q9P296)
Sequence (Q9P296 whole entry): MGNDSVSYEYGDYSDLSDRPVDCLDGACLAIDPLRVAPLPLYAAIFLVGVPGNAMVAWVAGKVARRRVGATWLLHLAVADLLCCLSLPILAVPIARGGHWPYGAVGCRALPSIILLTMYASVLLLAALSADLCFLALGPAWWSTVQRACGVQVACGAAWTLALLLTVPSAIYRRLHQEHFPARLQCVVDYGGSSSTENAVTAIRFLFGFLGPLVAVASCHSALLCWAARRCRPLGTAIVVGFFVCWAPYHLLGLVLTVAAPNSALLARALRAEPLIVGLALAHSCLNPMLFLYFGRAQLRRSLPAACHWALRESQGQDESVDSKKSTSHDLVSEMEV

Chain of complement anaphylatoxin C5a C5a (P01031 675-754): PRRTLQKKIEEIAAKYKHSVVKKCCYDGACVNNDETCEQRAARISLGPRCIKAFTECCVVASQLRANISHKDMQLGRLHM

## complement anaphylatoxin C5a C5a (from UniProt P01031)
  Kd: 2.5 nM
